Patent US9817004B2, “Development and use of cysteine-labeled fluorescent probes of unbound analytes” (priority 2008, dated 2017)
Where a chain is given by its changes, count along the chain named. Numbers in names are those of the source.

B1: ADIFAB: rat intestinal FABP (SEQ ID NO:2) labeled with acrylodan at lysine 27 (protein, listed as Rattus norvegicus)
chain: AFDGTWKVDRNENYEKFMEKMGINVVKRKLGAHDNLKLTITQEGNKFTVKESSNFRNIDVVFELGVDFAYSLADGTELTGTWTMEGNKLVGKFKRVDNGKELIAVREISGNELIQTYTYEGVEAKRIFKKE
modifications: acrylodan label at K27; PEPTIDE (1)...(131) wild-type rat intestinal fatty acid binding protein; …ON (1)...(1)
B2: V26C K27A: SEQ ID NO:2 with lysine 27 mutated to alanine, valine 26 to cysteine, cysteine labeled with acrylodan (protein, listed as Rattus norvegicus)
chain: B1 chain with V26C, K27A
modifications: acrylodan label on cysteine 26; PEPTIDE (1)...(131) wild-type rat intestinal fatty acid binding protein; …ON (1)...(1)
B3: L2P14F7: bilirubin specific fluorescent protein, the M18G,G31M mutation of SEQ ID NO 4, labeled with acrylodan at lysine 27 (protein, listed as Rattus norvegicus)
chain: AFDGTWKVDRNENYEKFGEKMGINVVKRKLMAHDNLKLTITQEGNKFTVKESSNFRNIDVVFELGVDFAYSAADGTELTGTWTMEGNKLVGKFKRVDNGKELIAVREISGNELIQTYTYEGVEAKRIFKKDRGHHHHHH
modifications: acrylodan label at lysine 27; MUTAGEN (72)...(72) rat intestinal fatty acid binding protein with alanine substitution for leucine at position 72 and Glu 131 to Asp subsitition.; COOH-terminal affinity tag comprising Arg132, Gly133 and 6 histidines
B4: K27C: lysine 27 of SEQ ID NO:2 mutated to cysteine and the cysteine labeled with acrylodan (protein, listed as Rattus norvegicus)
chain: B1 chain with K27C
modifications: acrylodan label at C27; PEPTIDE (1)...(131) wild-type rat intestinal fatty acid binding protein; …ON (1)...(1)
B5: L50BP9D5: acrylodan cysteine-labeled rI-FABP mutein; 18L 21F 23L 27C 31N 72S 73T 74A 76I 117N 131D (protein, listed as Rattus norvegicus)
chain: B3 chain with G18L, M21F, I23L, K27C, M31N, A72S, A73T, D74A, T76I, Y117N
modifications: acrylodan label on cysteine; MUTAGEN (131)...(131) rat intestinal fatty acid binding protein with Glu 131 to Asp subsitition.; COOH-terminal affinity tag comprising Arg132, Gly133 and 6 histidines
notes: acrylodan cysteine-labeled rI-FABP mutein; 18L 21F 23L 27C 31N 72S 73T 74A 76I 117N 131D
B6: L61P8B12: 8I 14L 18L 23L 27Y 30C 31V 53I 55W 72G 74A 78V 82V 91Y 93M 102V 106W 115W 117L 131D (protein, listed as Rattus norvegicus)
chain: AFDGTWKIDRNENLEKFLEKMGLNVVYRKCVAHDNLKLTITQEGNKFTVKESINWRNIDVVFELGVDFAYSGAAGTEVTGTVTMEGNKLVYKMKRVDNGKEVIAVWEISGNELIWTLTYEGVEAKRIFKKDRGHHHHHH
modifications: acrylodan label on cysteine; MUTAGEN (131)...(131) rat intestinal fatty acid binding protein with Glu 131 to Asp subsitition.; COOH-terminal affinity tag comprising Arg132, Gly133 and 6 histidines
notes: 8I 14L 18L 23L 27Y 30C 31V 53I 55W 72G 74A 78V 82V 91Y 93M 102V 106W 115W 117L 131D
B7: L68P3H10: 18L 23A 27C 31N 33N 55Q 72W 73T 74L 76I 106A 115E 117V 131D (protein, listed as Rattus norvegicus)
chain: AFDGTWKVDRNENYEKFLEKMGANVVCRKLNANDNLKLTITQEGNKFTVKESSNQRNIDVVFELGVDFAYSWTLGIELTGTWTMEGNKLVGKFKRVDNGKELIAVAEISGNELIETVTYEGVEAKRIFKKDRGHHHHHH
modifications: acrylodan label on cysteine; MUTAGEN (131)...(131) rat intestinal fatty acid binding protein with Glu 131 to Asp subsitition.; COOH-terminal affinity tag comprising Arg132, Gly133 and 6 histidines
notes: 18L 23A 27C 31N 33N 55Q 72W 73T 74L 76I 106A 115E 117V 131D
B8: L10P7A4-L30C: acrylodan cysteine-labeled rI-FABP mutein; SEQ ID 5 mutations 14L 18L 27A 30C 31Y 72A 73L 117A 131D (protein, listed as Rattus norvegicus)
chain: B3 chain with Y14L, G18L, K27A, L30C, M31Y, A73L, Y117A
modifications: acrylodan label at C30; MUTAGEN (131)...(131) rat intestinal fatty acid binding protein with Glu 131 to Asp subsitition.; COOH-terminal affinity tag comprising Arg132, Gly133 and 6 histidines

Key:
[1] = Fluorescence emission spectra with increasing oleic acid; type: binding; details: acrylodan labeled; 22° C., Ex=386 nm
Protocol: FIGS. 1A-1C show Fluorescence spectra with increasing oleic acid at 22° C. Ex=386 nm.
This is an example of the type of fluorescence response that is a necessary characteristic of a probe. […] This example illustrates that altering specific sites can yield effective probes.

[2] = Bilirubin binding isotherm of dual fluorophore ratio probes (I608/I525)
From the text: FIGS. 7A-7B show Bilirubin binding isotherms for two dual fluorophore bilirubin ratio probes synthesized by labeling with acrylodan and Texas red.
Because such fluorescent proteins may have other valuable characteristics it would be important to be able to convert such fluorescent proteins into probes, i.e. so that they respond to analyte binding by a change in ratio. This can be accomplished by introducing a second but different fluorophore at a different site so that either the fluorescence of the second fluorophore is insensitive or responds differently to analyte binding. In addition, the fluorescence index of second fluorophore should be measured at a distinct wavelength from the first fluorophore. […] To convert this to a fluorescence ratio probe, site specific mutagenesis was used to generate a new mutein (L2P14F7-MGCFD) in which the N-terminal alanine residue of the mature L2P14F7 mutein was replaced with glycine-cysteine. Thus, the N-terminus of the mature L2P14F7-MGCFD mutein has the sequence glycine-cysteine-phenylalanine-aspartate instead of alanine-phenylalanine-aspartate, as in the L2P14F7 template. This substitution is designated in the clone name as “MGCFD” and is sometimes described as an “N-terminal MGCFD linker”. Then L2P14F7-MGCFD was reacted with Texas Red (TR) maleimide at pH 6 under which conditions only the cysteine was labeled. […]

[3] = FFAu response-profile screening of probes (FFA specificity); type: binding; details: cysteine labeled with acrylodan at pH 7.0; FFA to which probe has improved specificity
Protocol: In some embodiments, aliquots of the probes prepared as described above are placed in multi-well plates, suitable for fluorescence measurements. Defined amounts of unbound analytes are added to each well and a fluorescence signal from the wells containing probe and analytes are compared to wells containing only the probe. The values obtained are compared with those of a ‘reference’ probe. The analytes may be fatty acids or other unbound metabolites. Preferably, the number of wells in the multiwell plate is between 1 and 1536. […] For many analytes it is important that they be added to each well in complex with a carrier molecule, for example albumin, to buffer the unbound analyte and thereby clamp its concentration to well defined values. Clamping ensures that the concentration of analyte in the aqueous phase in the well is unaffected by binding to the surfaces of the well or the probes themselves. Clamping is essential for discovery of probes because analytes have different solubilities and therefore different affinities for surfaces. Highly insoluble analytes added without proper clamping may bind to the surfaces and be unavailable for binding to the probe. In this example the probe might incorrectly give the appearance of no response to the insoluble analyte. Thus to determine the correct response profile (specificities) for each probe each analyte's concentration must be clamped.
The fluorescence intensity ratio (“R” value) for a given probe is determined. The ratio is calculated using the following formula: R=Fλ1/Fλ2 wherein, Fλ1 is the measured fluorescence intensities (intensity of the probe with the analyte present minus intensity of the analyte without probe present) at wavelength 1 and Fλ2 is the measured fluorescence intensities (intensity of the probe with the analyte present minus intensity of the analyte without probe present) at wavelength 2. Then, for a given probe, ΔR, the difference in R value between the measurement in the presence of each analyte and in the absence of each analyte, is calculated as follows: ΔR=R+analyte−R0 The ΔR value for a given probe is then compared to a reference probe, for example, ADIFAB or ADIFAB2, by ΔR/ΔRreferenee. This value is an indication of how dissimilar the new probe (derived by mutation of the template) is to the reference. By this method, probes with new and useful characteristics may be identified. Measurements of fluorescence intensities are obtained using standard techniques.
More than 40 libraries of cysteine-labeled mutant probes, using templates derived from SEQ ID NO: 5, with the number of different mutant probes in the various libraries ranging from 2000 to 2,000,000 have been generated using the methods described in U.S. Pat. No. 7,601,510, incorporated herein by reference. […]

Molecule | fluorescence response upon FFA binding (spectral shift / ratio response) [1] | Specificity [3] | further results
B1 | red shift in its fluorescence emission spectrum upon binding FFA | – | –
B2 | yields a ratio response upon FFA binding | – | –
B3 | – | – | analyte specificity ([2]; labeled with acrylodan at lysine 27): bilirubin specific; Kd ([2]; single site equilibrium binding, ratio I608/I525, excited at 375 nm): ~0.08 µM
B4 | without the necessary spectral shift to yield a ratio probe | – | –
B5 | – | PA/POA | –
B6 | – | POA | –
B7 | – | DHA | –
B8 | – | DHA | –
